The values below come from PMC7977458, “The CK1δ/ε-AES axis regulates tumorigenesis and metastasis in colorectal cancer” (Theranostics, 2021).

For one test, the target named is SKP2 (UniProt Q13309). Briefly: anti-Flag co-IP, immunoblot. Particulars: reference: wild type; sites S121. (In western blotting, separated proteins are transferred to a membrane and probed.)
The target of test [1] is T1, Flag-SKP2 (Flag-tagged S phase kinase-associated protein 2) (UniProt Q13309 1-424).
T1 construct: S phase kinase-associated protein 2 (SKP2); source: HEK293T, transfected, in lysate; also purified from HEK293T cells transfected with the Flag-SKP2 plasmid
T1 sequence (Q13309 whole entry): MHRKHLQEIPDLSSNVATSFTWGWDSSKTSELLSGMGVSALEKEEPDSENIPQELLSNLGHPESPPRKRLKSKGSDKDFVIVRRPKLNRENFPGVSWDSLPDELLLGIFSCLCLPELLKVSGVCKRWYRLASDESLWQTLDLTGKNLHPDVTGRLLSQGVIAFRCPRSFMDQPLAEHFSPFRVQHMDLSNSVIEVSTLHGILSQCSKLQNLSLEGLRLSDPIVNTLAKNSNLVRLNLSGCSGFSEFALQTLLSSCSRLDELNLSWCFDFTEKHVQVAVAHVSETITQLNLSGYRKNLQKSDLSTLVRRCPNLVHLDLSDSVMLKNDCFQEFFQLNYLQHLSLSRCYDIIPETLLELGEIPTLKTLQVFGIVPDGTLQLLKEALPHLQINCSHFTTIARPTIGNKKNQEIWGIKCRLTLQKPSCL
Briefly: pull-down; in vitro GST pulldown; GST-AES fragments and CK1ε-His purified from E. coli, Flag-SKP2 purified from HEK293T cells; with 1 mM ATP; Flag-SKP2 detected with anti-SKP2 antibody. To be noted: both partners purified.

Take “AES (amino-terminal enhancer of split) (from UniProt Q08117) S121A”: the “binding against the reference” value with SKP2 is given as “lost”.

B1: GST-AES, full length, phosphorylated by CK1ε-His (natural protein, human, UniProt Q08117 1-197, looked up)
chain: MMFPQSRHSGSSHLPQQLKFTTSDSCDRIKDEFQLLQAQYHSLKLECDKLASEKSEMQRHYVMYYEMSYGLNIEMHKQAEIVKRLNGICAQVLPYLSQEHQQQVLGAIERAKQVTAPELNSIIRQQLQAHQLSQLQALALPLTPLPVGLQPPSLPAVSAGTGLLSLSALGSQAHLSKEDKNGHDGDTHQEDDGEKSD
modifications: phosphorylated in vitro by CK1ε-His with 1 mM ATP; the paper maps the CK1δ/ε site to Ser121
notes: Amino-terminal enhancer of split (AES), human, full length; Same chain as m14, after the kinase reaction in the pull-down; also called full-length AES (with CK1ε-His and ATP); source: E. coli, purified; incubated with CK1ε-His and 1 mM ATP; not shown: GST, N-terminal, kept
On to B1, for which, in test [1], the binding result is “binds”.
